Consider five molecules from patent US20190016813A1 (APROGEN KIC, published 2019).

In assay [1] the target is T1, human CD43 (JL-1 antigen) on cells (human, UniProt P16150 20-400).
T1 construct: also called leukosialin; sialophorin
T1 sequence: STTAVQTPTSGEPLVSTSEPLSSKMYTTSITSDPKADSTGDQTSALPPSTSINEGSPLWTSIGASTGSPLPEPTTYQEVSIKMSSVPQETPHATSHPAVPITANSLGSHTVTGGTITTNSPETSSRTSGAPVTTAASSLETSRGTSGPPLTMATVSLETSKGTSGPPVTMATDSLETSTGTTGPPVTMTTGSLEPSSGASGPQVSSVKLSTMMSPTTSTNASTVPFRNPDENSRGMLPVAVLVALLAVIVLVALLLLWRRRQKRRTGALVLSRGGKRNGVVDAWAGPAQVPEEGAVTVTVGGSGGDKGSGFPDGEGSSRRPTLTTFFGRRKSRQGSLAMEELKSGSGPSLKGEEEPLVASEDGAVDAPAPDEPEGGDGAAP
The assay can be described thus: immunofluorescence on Molt-4 cells, antibody 50 ug/ml, no human serum.

Assay [2] concerns the target T1, human CD43 (JL-1 antigen) on cells. The assay can be described thus: staining of CEM7 cells, fluorescence intensity (FIG. 34).
Assay [3] shares this target. Description: binding to CD43 positive CEM7 cells (FIG. 45).

B1: mouse anti-CD43 monoclonal antibody (ART140 JL1) (antibody, human IgG1, kappa, V domains shown)
VH: EVQLQQSGPELVKPGASVKISCKASGYSIGGYFMNWVKQSHGKSPEWIGRINPNNGDSFYNQKFKGTATLTVDRSSDTVHMEVLSLTSEDSAVYYCGREGYYGGRGYALDYWGQGTSVTVSS
VL: DIQMTQTTSSLSASLGDRVTISCRTSQDISNYLNWYQQKPDGTVKLLIYNTSRLHSGVPSRFSGSGSGTDYSLTIRNLEQKDIATYFCQQSNMFPYTFGGGTKLEIKR
notes: also called mouse anti-JL-1 antibody; mJL-1
For B1, the binding result in assay [1] was “binds”.

B2: humanized anti-CD43 antibody 257-10 (antibody, IgG1, V domains shown)
VH: QVQLVQSGAEVKKPGASVKVSCKASGYTFNGYFMNWVRQAPGQGLRWMGRINPNNGDSFYNQKFQGRVTMTRDTSTSTVYMEPSSLRSEDTAVYYCAREGYYGGRGYALDYWGQGTLVTVSS
VL: DTQMTQSPSSVSASVGDRVTITCRTSQDISNYLNWYQQKPGKAPKLLIYNTSRLHSGVPSRFSGSGSGTDFTLTISSLQPEDFATYYCQQSNMFPYTFGQGTKLEIKR
modifications: glycosylated in the light chain variable region (N50-T-S52 motif; Concanavalin A blot)
Turning to B2, the binding result in assay [2] is on record as “binds”.

B3: modified humanized anti-CD43 antibody, light chain N50Q (antibody, V domains shown)
VH: QVQLVQSGAEVKKPGASVKVSCKASGYTFNGYFMNWVRQAPGQGLRWMGRINPNNGDSFYNQKFQGRVTMTRDTSTSTVYMEPSSLRSEDTAVYYCAREGYYGGRGYALDYWGQGTLVTVSS
VL: DTQMTQSPSSVSASVGDRVTITCRTSQDISNYLNWYQQKPGKAPKLLIYQTSRLHSGVPSRFSGSGSGTDFTLTISSLQPEDFATYYCQQSNMFPYTFGQGTKLEIK
B3: the binding result in assay [3] is “binds”.

B4: modified humanized anti-CD43 antibody, light chain N50A (antibody, V domains shown)
VH: QVQLVQSGAEVKKPGASVKVSCKASGYTFNGYFMNWVRQAPGQGLRWMGRINPNNGDSFYNQKFQGRVTMTRDTSTSTVYMEPSSLRSEDTAVYYCAREGYYGGRGYALDYWGQGTLVTVSS
VL: DTQMTQSPSSVSASVGDRVTITCRTSQDISNYLNWYQQKPGKAPKLLIYATSRLHSGVPSRFSGSGSGTDFTLTISSLQPEDFATYYCQQSNMFPYTFGQGTKLEIK
notes: also called modified humanized antibody removing glycosylation
With B4, the binding result in assay [3] is reported as “binds”.

B5: humanized anti-CD43 antibody 456-D10 (antibody, V domains shown)
VH: QVQLVQSGAEVKKPGASVKVSCKASGYTFNGYFMNWVRQAPGQGLERMGRINPNNGDSFYNQKFQGRVTMTRDTSTSTVYMELPSLRSEDTAVYYCAREGYYGGRGYALDYWGQGTLVTVSS
VL: DTQMTQSPSSVSASVGDRVTITCRTSQDISNYLNWYQQEPGKAPKLLIYNTSRLHSGVPSRFSGSGSGTDFTLTISSLQPEDFATYYCQQSNMFPYTFGQGTKLEIKR
notes: tested as humanized IgG
Turning to B5, in assay [2], the binding result is “binds”.
